Residue numbers refer to the chain shown, from its start. Blank lines part the entries; values can stand above or below the binder they belong to.
Experiments:
[1] = biological target: T1, human ICOS-hFc (human, UniProt Q9Y6W8 21-140); assay: ELISA, antigen coated at 1 µg/mL
T1 construct: Commercial protein; also called ICOS (ACRO); not shown: human Fc (hFc)
T1 sequence (looked up): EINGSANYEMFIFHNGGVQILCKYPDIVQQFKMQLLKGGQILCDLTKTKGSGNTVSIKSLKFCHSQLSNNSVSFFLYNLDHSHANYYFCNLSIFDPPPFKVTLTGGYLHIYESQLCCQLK
Text: (§1) A horse radish peroxidase (HRP)-coupled anti-human IgG (F) was used as the secondary antibody. After developed with TMB and terminated, it was read for an OD450 value with a microplate reader.

[2] = biological target: T2, human CD28-hFc (human, UniProt P10747 19-152); assay: ELISA, antigen coated at 1 µg/mL
T2 construct: Commercial protein; also called CD28 (ACRO); not shown: human Fc (hFc)
Text: as §1

[3] = biological target: T3, human CTLA4-hFc (human, UniProt P16410 37-162, limits assumed); assay: ELISA, antigen coated at 1 µg/mL
T3 construct: Commercial protein; also called CTLA-4 (ACRO); not shown: human Fc (hFc)
T3 sequence (P16410 37-162 limits assumed): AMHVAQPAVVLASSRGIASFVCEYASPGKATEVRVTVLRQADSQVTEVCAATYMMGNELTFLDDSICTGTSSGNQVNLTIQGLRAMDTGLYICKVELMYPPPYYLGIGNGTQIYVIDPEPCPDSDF
Text: as §1

[4] = biological target: T4, PD1 naturally expressed by activated human lymphocytes (PHA-activated PBMC) (human, UniProt Q15116 25-288); assay: flow cytometry on PHA-activated human PBMC
T4 construct: whole, on cells; Also used as the target for the mixed lymphocyte reaction (human T cells)
T4 sequence (Q15116 25-288): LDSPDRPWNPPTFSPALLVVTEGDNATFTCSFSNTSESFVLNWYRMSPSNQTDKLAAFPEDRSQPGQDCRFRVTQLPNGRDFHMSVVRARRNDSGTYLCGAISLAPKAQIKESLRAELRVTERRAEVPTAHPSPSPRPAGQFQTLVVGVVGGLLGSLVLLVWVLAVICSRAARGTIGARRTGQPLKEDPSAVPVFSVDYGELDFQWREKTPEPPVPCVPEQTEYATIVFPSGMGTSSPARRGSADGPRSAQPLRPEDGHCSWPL
Procedure: After being obtained from fresh human peripheral blood by gradient centrifugation of lymphatic separation medium, the PBMCs were adjusted to the density of 1×10⁶ cells/mL and inoculated into T75, and meanwhile added with PHA-L (Sigma) at a final concentration of 1 μg/mL to stimulate the proliferation of lymphocytes. After being allowed to stand in an incubator at 37° C. and 5% CO₂ for 3 days, the cell suspension was taken out and centrifuged. The supernatant was discarded, and the precipitate was resuspended in a buffer (PBS containing 3% BSA) and added into a 96-well U-shaped plate at 2E5/well, then added with different concentration gradients of the humanized antibody, incubated at 4° C. for 30 minutes, and then centrifuged at 300 g for 5 minutes. The cells were washed once with the buffer, and added with a PE-labeled goat anti-human IgG fluorescent antibody (Biolegend), and incubated at 4° C. for 30 minutes. Then cells were centrifuged and washed once, resuspended in PBS, and subsequently analyzed by a CytoFlex flow cytometer to detect the quantity of the antibody bound to the PBMC.

[5] = biological target: T5, recombinant human PD-1 expressed on the surface of CHO cells (CHO-hPD1) (human, UniProt Q15116 25-288); assay: flow cytometry on CHO-hPD1 cells
T5 construct: whole, on cells; also called CHO-PD1; hPD1-transfected CHO cells
T5 sequence (Q15116 25-288): as above
Procedure: (§2) A CHO (Chinese Hamster Ovary Cells) cell line, CHO-hPD1, capable of expressing a recombinant human PD-1 on the cell surface, and a CHO cell line, CHO-cynoPD1, capable of expressing a monkey PD1 on the cell surface were prepared by recombinant technology. […] The specific method was: In order to evaluate the binding of the humanized antibody to the CHO-hPD1, 2×10⁵ CHO-hPD1 cells and the humanized antibody diluted in concentration gradient (with an initial concentration of 30 μg/mL, and diluted in 3-fold gradient) were added into a 96-well plate, and incubated at 4° C. for 30 minutes. The cells were washed once with a buffer (PBS containing 3% BSA) and then added with a PE-labeled anti-human IgG (Fc) Ab (Biolegend) fluorescent secondary antibody, incubated at 4° C. for 30 minutes, then washed once with the buffer and subsequently resuspended in PBS. Thereafter, the cell suspension was subjected to flow cytometric analysis by CytoFlex (Beckman flow cytometer), and the quantity of the antibody bound to the cells was measured according to the mean fluorescence intensity (MFI) of the staining. The same method was used for evaluating the binding of the humanized antibody to the CHO-cyno cells.

[6] = biological target: T5, recombinant human PD-1 expressed on the …; assay: flow cytometry, blocking of PD-L1-mFc (0.2 µg/mL) binding to CHO-hPD1
Procedure: (§3) The ability of the anti-PD-1 humanized antibody to block the binding of the ligand to a transfected CHO cells which could stably express PD-1 on the surface was analyzed by a flow cytometer.
(§4) The CHO-PD1 cells were resuspended with a buffer (PBS containing 3% BSA), and adjusted to the density of 2×10⁶ cells/mL. The cell suspension was added into a 96-well U-shaped plate at 100 μL/well and centrifuged at 300 g for 5 minutes, and then the supernatant was discarded.
(§5) The cells were centrifuged at 300 g for 5 minutes, washed once with the buffer, added with a PE-labeled goat anti-mouse IgG fluorescent antibody (Biolegend), and incubated at 4° C. for 30 minutes. The cells were centrifuged and washed once, then resuspended in PBS, and subsequently analyzed by a CytoFlex flow cytometer to detect the quantity of the ligand protein bound to the cells, and calculate the IC₅₀ value of the PD-1 antibody in blocking the binding.

[7] = biological target: T6, monkey PD1 expressed on the surface of CHO cells (CHO-cynoPD1) (monkey); assay: flow cytometry on CHO-cynoPD1 cells
T6 construct: whole, on cells
Procedure: as §2

[8] = biological target: T1, human ICOS-hFc; assay: ELISA, antigen coated at 1 µg/mL, antibody 10 µg/mL
Text: as §1

[9] = biological target: T2, human CD28-hFc; assay: as above
Text: as §1

[10] = biological target: T3, human CTLA4-hFc; assay: as above
Text: as §1

[11] = biological target: T7, human PD-1-hFc (human, UniProt Q15116 25-167); assay: as above
T7 construct: Commercial protein; also called PD-1 (ACRO); not shown: human Fc (hFc)
T7 sequence (Q15116 25-167 limits assumed): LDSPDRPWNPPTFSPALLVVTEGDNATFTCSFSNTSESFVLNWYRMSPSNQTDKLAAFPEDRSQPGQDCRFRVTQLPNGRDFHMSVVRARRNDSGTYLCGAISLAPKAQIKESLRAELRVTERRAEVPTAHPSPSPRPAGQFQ
Text: as §1

[12] = biological target: T8, PD-1-his (ACRO) recombinant protein (UniProt Q15116 25-167); assay: BLI (ForteBio Octet), PD-1-his loaded on sensor, antibody in solution
T8 construct: Commercial protein; not shown: his tag
T8 sequence (Q15116 25-167 limits assumed): as above
Procedure: Finally, analysis was conducted by utilizing a kinetic model, and data processing was conducted.

[13] = biological target: T4, PD1 naturally expressed by activated …; assay: cell-based or functional assay
[14] = biological target: T5, recombinant human PD-1 expressed on the …; assay: flow cytometry, blocking of PD-L2-mFc (0.2 µg/mL) binding to CHO-hPD1
Procedure: as §3, §4, §5

binding result [1]: no binding (tested: 10 µg/mL) | binding result [2]: no binding (tested: 10 µg/mL) | binding result [3]: no binding (tested: 10 µg/mL) | EC50 [4]: 0.281 nM | EC50 [5]: 1.58 nM | IC50 [6]: 3.14 nM | EC50 [7]: 0.894 nM | OD450 [8]: 0.131 OD450 | OD450 [9]: 0.189 OD450 | OD450 [10]: 0.255 OD450 | OD450 [11]: 1.23 OD450 | Kd [12]: < 0.001 nM | koff [12]: < 1e-07 s⁻¹ | kon [12]: 984000 M⁻¹ s⁻¹ | IFNγ EC50 (mixed lymphocyte reaction) [13]: 2.73 nM | IL2 EC50 (mixed lymphocyte reaction) [13]: 2.79 nM | IC50 [14]: 7.95 nM
B1: anti-PD-1 humanized antibody c43 (antibody, V domains shown)
VH: QVQLVQSGAEVKKPGASVKVSCKASGYTFTTYYMYWVRQAPGQGLEWIGGINPSNGGTNYAEKFKGRVTLTVDTSTSTAYMELSSLRSEDTAVYYCTRRDSNYDGGFDYWGQGTTVTVSS
VL: DIQMTQSPSSLSASVGDRVTITCRASKSVSTSGYSYMHWYQQKPGKAPKLLIYLAYHLESGVPSRFSGSGSGTDFTLTISSLQPEDFATYYCQHSWELPITFGQGTKLEIKR

binding result [1]: no binding (tested: 10 µg/mL) | binding result [2]: no binding (tested: 10 µg/mL) | binding result [3]: no binding (tested: 10 µg/mL) | EC50 [4]: 0.213 nM | EC50 [5]: 1.71 nM | IC50 [6]: 3.02 nM | EC50 [7]: 0.743 nM | OD450 [8]: 0.133 OD450 | OD450 [9]: 0.176 OD450 | OD450 [10]: 0.239 OD450 | OD450 [11]: 1.48 OD450 | Kd [12]: < 0.001 nM | koff [12]: < 1e-07 s⁻¹ | kon [12]: 979000 M⁻¹ s⁻¹ | IFNγ EC50 (mixed lymphocyte reaction) [13]: 6.65 nM | IL2 EC50 (mixed lymphocyte reaction) [13]: 1.88 nM | IC50 [14]: 7.05 nM
B2: anti-PD-1 humanized antibody c53 (antibody, V domains shown)
VH: B1 VH with I48M, E62Q, K65Q, V68A, L70M
VL: B1 VL

binding result [1]: no binding (tested: 10 µg/mL) | binding result [2]: no binding (tested: 10 µg/mL) | binding result [3]: no binding (tested: 10 µg/mL) | EC50 [4]: 0.141 nM | EC50 [5]: 1.68 nM | IC50 [6]: 3.1 nM | EC50 [7]: 0.63 nM | OD450 [8]: 0.117 OD450 | OD450 [9]: 0.18 OD450 | OD450 [10]: 0.209 OD450 | OD450 [11]: 1.33 OD450 | Kd [12]: < 0.001 nM | koff [12]: < 1e-07 s⁻¹ | kon [12]: 985000 M⁻¹ s⁻¹ | IFNγ EC50 (mixed lymphocyte reaction) [13]: 0.727 nM | IL2 EC50 (mixed lymphocyte reaction) [13]: 13.3 nM | IC50 [14]: 6.88 nM
B3: anti-PD-1 humanized antibody c22 (antibody, V domains shown)
VH: B1 VH with I48M, Y60F, A61N, G66S, L70M, T74K
VL: B1 VL with M4L, V19A, L82V

From US20240287184A1 (GUANGDONG FAPON BIOPHARMA, published 2024)
